Assay [1] has as its target T1, human CD33 (full length ECD), recombinant (human, UniProt P20138 18-259).
T1 construct: extracellular domain; Tag or HSA fusion partner unknown; also called hu CD33 (FL ECD); hCD33-FL ECD
Put plainly: SPR (Biacore 8K), antibody captured by anti-human Fc, antigen in solution.
Protocol: (§1) Affinities (KD) for the interaction of anti-CD33 antibodies human CD33 (full length ECD and IgC2 domain) were obtained by SPR. The anti-CD33 antibodies were captured using an anti-human Fc antibody and the antigens were injected in solution.
(§2) The binding affinity of anti-CD33 antibodies and Llama vHHs to the recombinant human CD33 (FL ECD or IgC2 domain) was determined by surface plasmon resonance (SPR) using Biacore 8K instrument. […] The association and dissociation were monitored for 2 and 30 minutes, respectively, using a flow rate of 50 μL/min. Raw binding data was referenced by subtracting the analyte binding signals from blanks and analyzed using a 1:1 Langmuir binding model using the Biacore software to obtain the kinetics which were used to calculate the binding affinity.

In assay [2] the target is T2, human CD33 IgC2 domain, recombinant (human, UniProt P20138 136-259).
T2 construct: domain: IgC2; also called hu CD33 (IgC2); hCD33-IgC2
Described as above.
Protocol: as §1, §2

Assay [3] deals with T2, human CD33 IgC2 domain, recombinant. Put plainly: SPR (Biacore 8K), vHH-mono-Fc captured by anti-human Fc, antigen in solution.
Protocol: as §2
(§3) The anti-CD33 Llama vHHs on a mono-Fc backbone were captured using an anti-human Fc antibody and the antigens were injected in solution.
In assay [4] the target is T1, human CD33 (full length ECD), …. Described as above.
Protocol: as §2, §3
For assay [5], the target named is T3, human CD33 on cells (MOLM-13, Kasumi-1, OCI-AML-3, Kasumi-3) (human, UniProt P20138 18-364).
T3 construct: whole, on cells; also called CD33 expressing cells; CD33+ cell lines
Put plainly: flow cytometry on MOLM-13 cells, 4 °C, detection with PE goat F(ab')2 anti-human IgG-Fc.

The target in assay [6] is T3, human CD33 on cells (MOLM-13, Kasumi-1, …). Put plainly: flow cytometry on MOLM-13 cells, 4 °C, serial dilutions of the antibody. (In general: Flow cytometry measures light scatter and fluorescence of single cells or particles in a stream.)
Protocol: (§4) Cells were harvested, washed once with PBS and then stained with the fixable viability dye at room temperature for 30 min. Following incubation, cells were washed twice with FACS buffer (PBS+2% FBS). Cells were then used for binding assay with test antibodies. 100,000 cells were stained with the test antibodies in a 100 ul staining volume. Antibodies for staining were diluted in FACS buffer and incubated with the cells for 40 mins on ice, followed by washing 2X with FACS buffer. Test antibodies were then detected using the PE conjugated Goat F(ab′)2 Anti-Human IgG-Fc (ab98596; Abcam) for 40 minutes on ice. Following washing, data was acquired on the Novocyte flow cytometer (ACEA). Cells were gated on FSC/SSC, followed by live cell gating and doublet discrimination. Data was analyzed using Flow Jo (BD).
(§5) Median fluorescence intensity values were used to plot a 4-parameter non-linear regression analysis curve after subtracting the MFI of the secondary only sample.
(§6) The binding EC₅₀ values of CD33 antibodies to high (MOLM-13), medium (Kasumi-1) and low (OCI-AML-3) cell lines were assayed. Binding was carried out at 4° C. with serial dilutions of the antibody.
The target is the same in assay [7]. Put plainly: flow cytometry on OCI-AML-3 cells, 4 °C, serial dilutions of the antibody.
Protocol: as §4, §5, §6

T1 sequence (P20138 18-259): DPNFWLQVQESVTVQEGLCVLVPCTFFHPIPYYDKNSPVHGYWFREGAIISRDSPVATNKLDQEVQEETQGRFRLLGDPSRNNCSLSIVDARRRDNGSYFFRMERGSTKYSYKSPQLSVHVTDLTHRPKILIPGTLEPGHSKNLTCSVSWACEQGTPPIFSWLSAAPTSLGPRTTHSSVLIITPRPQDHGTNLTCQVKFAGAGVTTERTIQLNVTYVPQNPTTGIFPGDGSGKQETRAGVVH
T3 sequence (P20138 18-364): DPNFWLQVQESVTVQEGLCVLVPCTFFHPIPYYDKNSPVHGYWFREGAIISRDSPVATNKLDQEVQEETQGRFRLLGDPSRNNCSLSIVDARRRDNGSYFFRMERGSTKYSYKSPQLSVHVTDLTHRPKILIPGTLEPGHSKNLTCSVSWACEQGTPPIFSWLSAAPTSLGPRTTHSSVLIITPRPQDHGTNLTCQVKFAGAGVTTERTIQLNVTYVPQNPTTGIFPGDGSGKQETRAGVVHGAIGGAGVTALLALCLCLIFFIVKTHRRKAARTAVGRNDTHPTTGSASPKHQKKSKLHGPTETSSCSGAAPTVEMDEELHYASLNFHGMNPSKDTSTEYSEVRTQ
T2 sequence (P20138 136-259 limits assumed): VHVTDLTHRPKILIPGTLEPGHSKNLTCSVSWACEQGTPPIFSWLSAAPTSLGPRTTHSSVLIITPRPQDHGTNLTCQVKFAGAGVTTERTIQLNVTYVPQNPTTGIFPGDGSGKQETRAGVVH

B1: C33B931 (antibody, V domains shown)
VH: not shown
VL: SYELTQPPSVSVSPGQTASITCSGDKLGSKFASWYQQKPGQSPVLVIYQDSKRPSGIPERFSGSNSGNTATLTISGTQAMDEADYYCQAWDSSTVVFGGGTKLTVL
With B1, the Kd (commonly the constant that tells how readily two partners part at equilibrium) in assay [1] stood at 0.4 nM.

B2: C33B919 (antibody, V domains shown)
VH: QVQLVESGGGVVQPGRSLRLSCAASGFTFSSYGMHWVRQAPGKGLEWVAVISYDGSNKYYADSVKGRFTISRDNSKNTLYLQMNSLRAEDTAVYYCAKDFRSFDWLPPDSTSYYGMDVWGQGTTVTVSS
VL: SYELTQPPSVSVSPGQTASITCSGDKLGDKYVSWYQQKPGQSPVVVIHQDRKRPSGIPERFSGSNFGNTATLTISGTQAMDEADYYCQAWDSSTVVFGGGTKLTVL
Take B2: the binding result in assay [2] is reported as “no binding (tested: 40 nM-1.6 nM CD33 antigen)”. In assay [1], the Kd amounted to 0.5 nM.

B3: C33B933 (antibody, V domains shown)
VH: QVQLVESGGGVVQPGRSLRLSCAASGFTFSSYGMHWVRQSPGKGLEWVAVISYDGSNKYYADSVKGRFTISRDNSKSTLYLQMNSLRAEDTAVYYCAKDFRSLDWLPPDSTSYDGMDVWGQGTTVTVSS
VL: SYELTQPPSVSVSPGQTASITCSGHKLGDKYASWYQQKPGQSPVVVIYKDSKRPSGIPERFSGSNFGNTATLTISGTQAMDEADYYCQAWDSSTVVFGGGTKLTVL
Turning to B3, in assay [1], the Kd was determined as 0.5 nM.

B4: C33B125 (antibody, V domains shown)
VH: QVQLVESGGGVVQPGRSLRLSCAASGFTFSSYGMHWVRQAPGKGLEWVAVISYDGSNKYYADSVKGRFTISRDNSKNTLYLQMNSLRAEDTAVYYCAKDFRSFDWLPPDSTSYYGMDVWGQGTTVTVSS
VL: SYELTQPPSVSVSPGQTASITCSGDKLGDKYVCWYQQKPGQSPVVVIHQDRKRPSGIPERFSGSNFGNTATLTISGTQAMDEADYYCQAWDSSTVVFGGGTKLTVL
Take B4: the Kd was over 10 nM in assay [2] and 0.1 nM in assay [1].

B5: C33B937 (antibody, V domains shown)
VH: QVQLVESGGGVVQPGRSLRLSCVASGFTFSSYGMHWVRQAPGKGLEWVAVISYDGSNKYYADSVKGRFTISRDNSKNTLYLQMNSLRAEGTAVYYCAKDFRSFDWLPPDSASYHGMDVWGQGTTVTVSS
VL: SYELTQPPSVSVSPGQTASITCSGDKLGDKYASWYQQKPGQSPVLVIYQDGKRPSGIPERFSGSNFGNKATLTISGTQAMDEADYYCQAWDRNTVVFGGGTKLTVL
For the molecule B5, the Kd in assay [2] came to 56 nM; in assay [1], 0.3 nM.

B6: C33B1781 (llama vHH on mono-Fc backbone) (Fc fusion)
chain: EVQVVESGGGLVQGGGSLRLSCAASGSIFSINAMGWYHQAPGKQRELVARITGGGATDYVDSVKGRFTISLDSAKSTVYLQMNSLKPEDTAVYHCYADLVTRVGSDLLYDDYWGQGTQVTVSS
notes: not shown: mono-Fc backbone
As for B6, the Kd in assay [3] turned out to be 0.0559 nM; in assay [4], 2.21 nM.

B7: C33B1495 (antibody, V domains shown)
VH: EVQLVESGGGLVQPGGSLRLSCTASGFTFSSYWMSWVRQAPGKGLDWVANIKRDGSEKHYVDSVKGRFTISRDNAKNSLYLQMNSLRAEDSAVYYCTRDYGYFDYWGQGTLVTVSS
VL: DIQLTQSPSFLSASVGDRVTITCRASQGISSYLAWYQQKPGKAPKVLIYAASTLQSGVPSRFSGSGSGTEFTLTISSLQPEDFATYFCQQLNSYPVTFGGGTKVEIK
notes: also called sCD33B1495
For the molecule B7, the binding result in assay [5] was “binds”.

B8: C33B1786 (llama vHH on mono-Fc backbone) (Fc fusion)
chain: EVQVVESGGGVVQSGGSLTLSCEASESILSFSTMDWFRQAPGKEREGVSCIRPRYSTTTHADSIKGRFKMYSDNAKNTIYLHMNSLQPEDTAVYYCHMYHYSSQYWGQGTQVTVSS
notes: not shown: mono-Fc backbone
Consider B8, for which, in assay [4], the Kd was 0.357 nM.

B9: C33B1787 (llama vHH on mono-Fc backbone) (Fc fusion)
chain: EVQLVESGGGLVQAGGSLRLSCAASGFTFDDYAIGWFRQAPGKEREGVSCISSSDGSTYYVDSVKGRFTISSDNAKNTVYLQMNSLKPEDTAVYYCTALIIMYGSGSERAAAACRYKYEYWGQGTQVTVSS
notes: not shown: mono-Fc backbone
For B9, the Kd in assay [4] amounted to 0.792 nM.

B10: C33B1607 (antibody, V domains shown)
VH: EVQLQQSGPELVKPGSSVKISCKASGYTFTDYNINWVKQSHGKNLEWIGTINPNNGVTFYNQRFKGQATLTVDKSSSTAYMELRSLTSEDSAVYYCSRDGYDTYYAMDYWGQGTTLTVSS
VL: DIVMTQSHKFMSTSVGDRVSITCKASQDVRTAEAWYQQKPGQSPKLLIYSASNRYTGVPDRFTGSGSGTDFTFTISSVQAEDLAVYYCQQYYTTPRTFGGGTKLEIK
As to B10, the binding result in assay [2] was “no binding (tested: 40 nM-1.6 nM CD33 antigen)”. The Kd in assay [1] came to 1.49 nM.

B11: C33B1474 (antibody, V domains shown)
VH: QVQLVESGGGLVQPGGSLRLSCAASGFTFSSFGMSWVRQAPGKGLEWVANIKRDGSEKYYVDSVKGRFTISRDNAKNSLFLQMSSLRAEDTAVYYCVRDYGYFDFWGQGTLVTVSS
VL: DIQMTQSPSSLSASVGDRVTITCQASQAISNYLNWYQQKPGKAPKLLIYDASNLETGVPSRFSGSGSGTDFTFTISSLQPEDFSTYFCQHYDNLPYTFGQGTKLEIK
Turning to B11, the results for the Kd in assay [2] and in assay [1] were 3.99 nM and 2.47 nM, respectively. The concentration for a half-maximal effect (EC50) (commonly the concentration that produces a half-maximal response) in assay [6] was determined as 78.4 nM; in assay [7], 1.26 nM.

B12: C33B1788 (llama vHH on mono-Fc backbone) (Fc fusion)
chain: QVQLVESGGGLVQPGGSLRLSCAVFGFSLSDYAIGWFRQAPGKEREKVSCISESDGRTYLSDSVKSRFTISRDNGKNTVYLQMNNLKPDDTGVYYCATVDQAISESSYHCEKGFGSWGQGTQVTVSS
notes: not shown: mono-Fc backbone
Consider B12, for which the values for the Kd in assay [3] and in assay [4] were 4.34 nM and 0.707 nM, respectively.

B13: C33B1789 (llama vHH on mono-Fc backbone) (Fc fusion)
chain: QVQLVESGGGLVQAGGSLRLSCAVFGFSLSDYAIGWFRQAPGKEREKVSCISESDGRTYLSDSVKSRFTISRDNGKNTVYLQMNNLKPDDTGVYYCATVDQAISESSYHCEKGFGSWGQGTQVTVSS
notes: not shown: mono-Fc backbone
On to B13, for which the results for the Kd in assay [3] and in assay [4] were 3.03 nM and 0.67 nM, respectively.

B14: C33B1517 (antibody, V domains shown)
VH: QVQLQESGPGLVKPSETLSLTCSVSGASIRNYYWSWIRQTAGKGLEWLGHIYSTGNIHYNPSLKSRVTMSVDTSNNQFSLKLRSVTAADTAVYYCARDNGAALFDYWGQGTLVTVSS
VL: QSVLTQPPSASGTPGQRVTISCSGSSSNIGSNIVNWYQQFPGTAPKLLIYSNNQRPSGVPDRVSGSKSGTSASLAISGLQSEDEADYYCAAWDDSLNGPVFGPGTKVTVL
For B14, the binding result in assay [2] is reported as “no binding (tested: 40 nM-1.6 nM CD33 antigen)”. Further, the Kd in assay [1] worked out at 4.44 nM. Also, the EC50 worked out at 10.6 nM in assay [6] and 1.4 nM in assay [7].

B15: C33B1783 (llama vHH on mono-Fc backbone) (Fc fusion)
chain: EVQLVESGGGLVQAGGSLRLSCAASGFTFDDYAVGWFRQVPGKEREGVSCISSSDGATYYADSVKGRFTISSDNAKNTVYLQMNSLKPEDTAVYYCTAIIVRGSGWERAAAACRYEYSYWGQGTQVTVSS
notes: vHH is placed first; not shown: mono-Fc backbone
For the molecule B15, in assay [4], the Kd was determined as 0.0859 nM.

B16: C33B1782 (llama vHH on mono-Fc backbone) (Fc fusion)
chain: EVQLVESGGGLVQAGGSLRLSCAASGFTFDDYAVGWFRQAPGKEREGISCISSSDGATYYADSVKGRFTISTDNAKNTAFLQMNSLKPEDTAVYYCTAVIVRGTGWERAAAACRYEYAYWGQGTQVTVSS
notes: not shown: mono-Fc backbone
For the molecule B16, in assay [4], the Kd is 0.206 nM.

B17: C33B1784 (llama vHH on mono-Fc backbone) (Fc fusion)
chain: EVQLVESGGGLVQAGGSLRLSCAASGRTFSTYVMGWFRQAPGQERELVAAIVSGRNPTYADSVKSRFTISRDNAKNTIYLHMNSLQPEDTAVYYCHMYHYSSQYWGQGTQVTVSS
notes: not shown: mono-Fc backbone
On to B17, for which, in assay [4], the binding result is given as “binds”.

B18: C33B1478 (antibody, V domains shown)
VH: EVQLVESGGGLVQPGGSLKVSCEASGFTFSVSAIHWVRQASGKGLEWIGRIRSKGNSYATAYDVSVKGRFTISRDDSKNTAYLQMDSLKTEDTAVYYCTRHNDKWNYYGLDVWGQGTTVTVSS
VL: DIVMTQSPLSLPVTPGEPASISCKSSQSLLFSNGYKFLDWYLQRPGQSPQLLIYLGSYRASGVPDRFSGSGSGTDFTLKISRVEAEDVGLYYCMQALQTPPTFGGGTKVEIK
modifications: In the FIG. 3 assay the antibody carried Alexa Fluor 647 (p-1610); the site is not given and the letters do not carry it.
notes: also called sCD33B1478
Turning to B18, in assay [5], the binding result was “binds”.

B19: C33B1476 (antibody, V domains shown)
VH: EVQLVESGGGLVQPGGSLKVSCEASGFTFSVSAIHWVRQASGKGLEWIGRIRSKGNSYATAYNVSVKGRFTISRDDSKNTAYLQMDSLKTEDTAVYYCTRHNDKWNYYGLDVWGQGTTVTVSS
VL: DIVMTQSPLSLPVTPGEPASISCKSSQSLLFSNGYKFLDWYLQRPGQSPQLLIYLGSYRASGVPDRFSGSGSGTDFTLKISRVEAEDVGLYYCMQALQTPPTFGGGTKVEIK
notes: also called sCD33B1476
The molecule B19 returned an EC50 in assay [7] of 0.8 nM.

B20: C33B1601 (antibody, V domains shown)
VH: EVQLVESGGGLVRPGGSLKLSCAASGFTFSNYAMSWVRQTPEKRLEWVAGISNSGYSLYYPDTLKGRFTISRDNARNTLYLQMISLRSEDTAMYYCARDGGSYPYAMDYWGHGTSVTVSS
VL: DIVMTQSQKFMSTSVGDRVSVTCKASQNVGTYVAWYQQKPGHSPKALIYSASYRYSGVPDRFTGSGSGTDFTLTISNVQSEDLADYFCQQYKSYPLTFGAGTKLELK
For the molecule B20, the values for the Kd in assay [2] and in assay [1] were 6.8 nM and 1.1 nM, respectively.

For the origin of these results see patent publication US20230365684A1 (Janssen / Centocor, published 2023).
